Laboratory results reported in patent US20200138969A1 (published 2020).

B1: SC16.34 (antibody, V domains shown)
VH: QIQLVQSGPELKRPGETVKISCKASGYTFTNYGMNWVKQAPGKGLKWMGWINTYTGDPTYADDFKGRFAFSLETSASTAYLQINNLKNEDTATYFCARIGGNSPSDYWGQGTSLTVSS
VL: SIVMTQTPKFLLVSAGDRVTITCKASQSVSNDVAWYQQKPGQSPKLLIYYASNRYSGVPDRFTGSGYGTDFTFTISTVQAEDLAVYFCQQDYSSPWTFGGGTKLEIK
B2: SC16.15 (antibody, V domains shown)
VH: QVQLQQSGAELAKPGASVKMSCKASGYTFTRYWIHWIKQRPGQGLEWIGYINPTTVYTEFNQNFKDKATLTADKSSTTASMQLSSLTSEDSAVYYCARGGSNFFDYWGQGTTLTVSS
VL: DIQMTQSPASLAASVGETVAITCRASENIYYNLAWYQQKQGKSPQLLIYTANSLEDGVPSRFSGSGSGTQYSLKINSMQPEDSATYFCKQAYDVPPTFGGGTKLEIK

Target: T1, human DLL3 (delta-like ligand 3), on the cell surface (human, UniProt Q9NYJ7 27-618)
T1 sequence: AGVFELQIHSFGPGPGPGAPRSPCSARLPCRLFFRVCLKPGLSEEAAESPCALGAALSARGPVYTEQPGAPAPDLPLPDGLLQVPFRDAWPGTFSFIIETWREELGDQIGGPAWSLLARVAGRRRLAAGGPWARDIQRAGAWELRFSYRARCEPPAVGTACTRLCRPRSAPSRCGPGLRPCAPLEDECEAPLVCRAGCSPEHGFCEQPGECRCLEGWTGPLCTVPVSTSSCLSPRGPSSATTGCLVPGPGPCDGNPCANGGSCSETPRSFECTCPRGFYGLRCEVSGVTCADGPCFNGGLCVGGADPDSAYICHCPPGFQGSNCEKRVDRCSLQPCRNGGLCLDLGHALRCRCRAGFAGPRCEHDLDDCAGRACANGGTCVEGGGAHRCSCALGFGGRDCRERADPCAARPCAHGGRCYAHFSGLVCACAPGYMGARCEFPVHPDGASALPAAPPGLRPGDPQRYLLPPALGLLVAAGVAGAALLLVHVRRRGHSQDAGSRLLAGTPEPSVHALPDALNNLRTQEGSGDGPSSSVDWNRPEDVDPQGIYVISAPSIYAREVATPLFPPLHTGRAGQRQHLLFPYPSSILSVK
Assay: cell-based or functional assay

Binder	EC50 of killing of OV26 (ovarian NET NTX tumor) cells with anti-mouse IgG Fab-saporin
B1	5.7 µM
B2	0.14 µM
